Changes are numbered by the printed parent chain. One block for each binder: values may come before it.
How the values were obtained:
[1] = target: T1, human DLL3 antigen protein (Kactus Biosystems, Cat. No. DLL-HM103) (human, UniProt Q9NYJ7 27-492); test: SPR (Biacore 8K), antibody captured on anti-human Fc, DLL3 in solution
T1 sequence: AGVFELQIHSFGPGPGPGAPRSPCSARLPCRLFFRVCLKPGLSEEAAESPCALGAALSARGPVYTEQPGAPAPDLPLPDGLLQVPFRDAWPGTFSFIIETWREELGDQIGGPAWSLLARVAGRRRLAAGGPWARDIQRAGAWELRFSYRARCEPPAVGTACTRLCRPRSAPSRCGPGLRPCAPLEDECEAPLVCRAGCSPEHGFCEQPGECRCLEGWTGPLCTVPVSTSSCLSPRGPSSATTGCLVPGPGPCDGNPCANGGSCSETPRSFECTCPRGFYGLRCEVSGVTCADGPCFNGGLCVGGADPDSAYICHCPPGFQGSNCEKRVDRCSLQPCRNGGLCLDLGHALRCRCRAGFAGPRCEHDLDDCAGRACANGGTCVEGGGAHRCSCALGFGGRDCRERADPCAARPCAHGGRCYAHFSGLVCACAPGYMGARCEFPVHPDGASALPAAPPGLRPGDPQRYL
Protocol: The affinity and kinetic properties of the humanized anti-DLL3 antibody to human DLL3 were analyzed using a Biacore 8K instrument. CM5 chips were activated with EDC and NHS, followed by immobilization of anti-human Fc murine mAb and blocked with ethanolamine.
Human DLL3 was diluted two-fold serially to serial concentrations (100 nM-0.39 nM) and associated for 90 s and dissociated for 600 s at a flow rate of 50 μL/min.
After completion of each cycle of the experiment, the captured antibody was removed together with the antigen by washing with a 3M MgCl₂ solution at a flow rate of 30 μL/min for 30 s to complete the regeneration of the chip. The raw data were analyzed using Biacore Insight Evaluation Software (3.0.12.15655) software and fitted with a (1:1) Langmuir model.

[2] = target: T2, human DLL1 (Sino Biological, Cat. No. 11635-H08H) (human, UniProt O00548 18-545); test: ELISA, plate coated with human DLL1 at 1 ug/mL, OD 450nm
T2 construct: also called family protein DLL1
T2 sequence: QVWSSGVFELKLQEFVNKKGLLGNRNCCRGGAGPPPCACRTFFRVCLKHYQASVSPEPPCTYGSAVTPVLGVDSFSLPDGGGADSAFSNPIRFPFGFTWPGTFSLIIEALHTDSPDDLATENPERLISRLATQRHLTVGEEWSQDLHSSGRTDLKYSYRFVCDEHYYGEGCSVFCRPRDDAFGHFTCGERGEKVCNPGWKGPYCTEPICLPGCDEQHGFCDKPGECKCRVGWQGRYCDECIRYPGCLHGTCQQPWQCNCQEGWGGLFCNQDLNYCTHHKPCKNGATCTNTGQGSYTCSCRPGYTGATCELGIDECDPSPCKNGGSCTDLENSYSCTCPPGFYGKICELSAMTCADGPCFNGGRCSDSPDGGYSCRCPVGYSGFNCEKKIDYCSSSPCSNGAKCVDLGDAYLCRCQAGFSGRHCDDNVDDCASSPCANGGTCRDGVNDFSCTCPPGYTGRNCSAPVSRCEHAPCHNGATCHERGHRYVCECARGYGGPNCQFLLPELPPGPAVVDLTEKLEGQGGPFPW
Protocol: The antigen was washed three times with PBST, 300 μL/well. The antigen was blocked with 1% BSA (in PBST), 200 μL/well, and incubated at 37° C. for 1.5 hours.
Antibodies to be tested were diluted with 1% BSA (in PBS) at a starting concentration of 100 nM, downwards by a 10-fold gradient for 7 concentrations. The plates were washed three times with PBST, 300 μL/well. The diluted antibody was added to an ELISA plate at 100 μL/well and incubated at room temperature for 2 hours. The antibodies were washed three times with PBST, 300 μL/well. The secondary antibodies (goat anti-human IgG Fc for DLL4 (HRP), 1:20000 dilution: HRP goat anti-mouse IgG (H+L) for DLL1, 1:10000 dilution) were diluted with 1% BSA in PBST. The diluted secondary antibodies were added to the ELISA plate at 100 μL/well and incubated at room temperature for 1 hour. The plates were washed 6 times with PBST, 300 μL/well. The developing solution (TMA and TMB 1:1 mixed) was prepared. The developing solution was added to the plate, 100 μL/well, and incubated in the dark for 5 min. 50 μL of ELISA stop solution was added to the plate and shaken well.
OD450s were read on the envision and plotted on the GraphPad for EC₅₀ values.

Kd [1]: 0.127 nM
koff [1]: 0.000274 s⁻¹
kon [1]: 2.15e+06 M⁻¹ s⁻¹
B1: DLL3-3 camelid-derived anti-DLL3 chimeric antibody (antibody, human IgG1, V domains shown)
VH: DVQLVESGGGSVQAGGSLKLSCKSPTYTISSGYMGWFRQAPGKEREGVAAIYIGGSTTLYADSVKGRFTISADNAEKTVYLQMNTLKPEDSAMYYCAAQLRPNSAYHPLDGRKYNYWGQGTQVTVSS

binding result [2]: no binding (tested: 100 nM)
Kd [1]: 0.304 nM
koff [1]: 0.00058 s⁻¹
kon [1]: 1.91e+06 M⁻¹ s⁻¹
B2: hDLL3-3-1 camelid-derived humanized anti-DLL3 antibody (antibody, human IgG1, V domains shown)
VH: EVQLVESGGGLVQPGGSLRLSCAASTYTISSGYMGWFRQAPGKEREGVAAIYIGGSTTLYADSVKGRFTISRDNSKNTLYLQMNSLRAEDTAVYYCAAQLRPNSAYHPLDGRKYNYWGQGTLVTVSS

binding result [2]: no binding (tested: 100 nM)
Kd [1]: 0.399 nM
koff [1]: 0.000776 s⁻¹
kon [1]: 1.95e+06 M⁻¹ s⁻¹
B3: hDLL3-3-2 camelid-derived humanized anti-DLL3 antibody (antibody, V domains shown)
VH: B2 VH with A23K, A24S, S25P

Kd [1]: 0.0322 nM
koff [1]: 1.23e-05 s⁻¹
kon [1]: 382000 M⁻¹ s⁻¹
B4: DLL3-26 camelid-derived anti-DLL3 chimeric antibody (antibody, human IgG1, V domains shown)
VH: QVQLVESGGGSVQAGGSLRLSCAASGDIYSSSYVGWFRQAPGKEREGVAIIYTSGDSTYYANSVKGRFTISQDKAKKTLYLQMNSLKPEDTAMYYCAARFAIDNSNYWGQGTQVTVSS

binding result [2]: no binding (tested: 100 nM)
Kd [1]: 1.69 nM
koff [1]: 0.000355 s⁻¹
kon [1]: 210000 M⁻¹ s⁻¹
B5: hDLL3-26 camelid-derived humanized anti-DLL3 antibody (antibody, V domains shown)
VH: EVQLVESGGGLVQPGGSLRLSCAASGDIYSSSYVGWFRQAPGKEREGVAIIYTSGDSTYYADSVKGRFTISRDNSKNTLYLQMNSLRAEDTAVYYCAARFAIDNSNYWGQGTLVTVSS

Kd [1]: 4.21 nM
koff [1]: 0.000392 s⁻¹
kon [1]: 93200 M⁻¹ s⁻¹
B6: DLL3-122 camelid-derived anti-DLL3 chimeric antibody (antibody, human IgG1, V domains shown)
VH: QVQLVESGGGSVQAGGSLRLSCTASGDTYRSYCMGWFRKAPGKEREGVADIVSDGSTSYADSVKGRFTISKDNAKNTLYLQMNSLKPEDTAMYYCAVDRGGSGGYCYTGRYDYWGQGTQVTVSS

binding result [2]: no binding (tested: 100 nM)
Kd [1]: 4.73 nM
koff [1]: 0.000466 s⁻¹
kon [1]: 98500 M⁻¹ s⁻¹
B7: hDLL3-122 camelid-derived humanized anti-DLL3 antibody (antibody, V domains shown)
VH: EVQLVESGGGLVQPGGSLRLSCAASGDTYRSYCMGWFRQAPGKEREGVADIVSDGSTSYADSVKGRFTISRDNSKNTLYLQMNSLRAEDTAVYYCAVDRGGSGGYCYTGRYDYWGQGTLVTVSS
